Experimental data from US20240301073A1 (SCHOLAR ROCK, published 2024).
Blank lines part the entries; values can stand above or below the binder they belong to.

Legend:
[1] = target: T1, human LTBP3-proTGFβ1 complex (human, UniProt Q9NS15 44-1303; P01137 30-390, limits assumed); experiment: SPR (Biacore)
T1 construct: also called hLTBP3-proTGFβ1

[2] = target: T2, human LTBP1-proTGFβ1 complex (human, UniProt Q14766 347-1721; P01137 30-390); experiment: SPR (Biacore)
T2 construct: also called hLTBP1-proTGFβ1

[3] = target: T3, human GARP-proTGFβ1 complex (human, UniProt Q14392 20-627; P01137 30-390, limits assumed); experiment: SPR (Biacore), monovalent Fab
T3 construct: also called hGARP-proTGFβ1

[4] = target: T1, human LTBP3-proTGFβ1 complex; experiment: SPR (Biacore), monovalent Fab
[5] = target: T4, human LRRC33-proTGFβ1 complex (human, UniProt Q86YC3 19-650; P01137 30-390, limits assumed); experiment: SPR (Biacore), monovalent Fab
T4 construct: also called hLRRC33-proTGFβ1

[6] = target: T2, human LTBP1-proTGFβ1 complex; experiment: SPR (Biacore), monovalent Fab
[7] = target: T3, human GARP-proTGFβ1 complex; experiment: monovalent Fab affinity (Biacore); repeats the 12th table
[8] = target: T1, human LTBP3-proTGFβ1 complex; experiment: as above
[9] = target: T4, human LRRC33-proTGFβ1 complex; experiment: as above
[10] = target: T2, human LTBP1-proTGFβ1 complex; experiment: as above
[11] = target: T1, human LTBP3-proTGFβ1 complex; experiment: binding profile; method not stated
[12] = target: T2, human LTBP1-proTGFβ1 complex; experiment: binding profile; method not stated

T4 sequence (Q86YC3 19-650 limits assumed, chain 1 of 2): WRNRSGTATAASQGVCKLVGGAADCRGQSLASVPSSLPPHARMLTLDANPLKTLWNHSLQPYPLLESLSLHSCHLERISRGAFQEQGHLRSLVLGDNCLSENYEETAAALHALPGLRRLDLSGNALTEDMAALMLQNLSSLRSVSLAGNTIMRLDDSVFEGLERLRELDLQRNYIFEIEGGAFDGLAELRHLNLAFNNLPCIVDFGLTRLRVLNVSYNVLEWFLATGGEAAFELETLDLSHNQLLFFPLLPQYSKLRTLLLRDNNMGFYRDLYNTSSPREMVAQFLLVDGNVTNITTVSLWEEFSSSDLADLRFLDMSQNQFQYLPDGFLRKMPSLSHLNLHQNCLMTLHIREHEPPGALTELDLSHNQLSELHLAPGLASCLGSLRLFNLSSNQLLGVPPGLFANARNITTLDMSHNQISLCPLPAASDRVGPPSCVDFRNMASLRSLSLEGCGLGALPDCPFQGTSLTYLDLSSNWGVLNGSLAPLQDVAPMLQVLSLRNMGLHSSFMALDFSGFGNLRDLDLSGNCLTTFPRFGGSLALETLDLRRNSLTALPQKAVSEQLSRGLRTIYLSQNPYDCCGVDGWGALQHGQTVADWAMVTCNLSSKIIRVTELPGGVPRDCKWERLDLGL
T4 sequence (P01137 30-390 limits assumed, chain 2 of 2): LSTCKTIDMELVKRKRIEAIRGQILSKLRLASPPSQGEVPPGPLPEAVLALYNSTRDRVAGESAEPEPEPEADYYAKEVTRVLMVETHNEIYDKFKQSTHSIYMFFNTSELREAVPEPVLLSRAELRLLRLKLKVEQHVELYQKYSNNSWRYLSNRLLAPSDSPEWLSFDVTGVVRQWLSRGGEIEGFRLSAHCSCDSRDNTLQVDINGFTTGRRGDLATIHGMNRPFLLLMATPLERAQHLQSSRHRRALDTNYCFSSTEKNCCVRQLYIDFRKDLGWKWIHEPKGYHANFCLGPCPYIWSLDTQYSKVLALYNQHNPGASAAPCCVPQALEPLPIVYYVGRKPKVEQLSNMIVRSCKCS
T1 sequence (Q9NS15 44-1303 limits assumed, chain 1 of 2): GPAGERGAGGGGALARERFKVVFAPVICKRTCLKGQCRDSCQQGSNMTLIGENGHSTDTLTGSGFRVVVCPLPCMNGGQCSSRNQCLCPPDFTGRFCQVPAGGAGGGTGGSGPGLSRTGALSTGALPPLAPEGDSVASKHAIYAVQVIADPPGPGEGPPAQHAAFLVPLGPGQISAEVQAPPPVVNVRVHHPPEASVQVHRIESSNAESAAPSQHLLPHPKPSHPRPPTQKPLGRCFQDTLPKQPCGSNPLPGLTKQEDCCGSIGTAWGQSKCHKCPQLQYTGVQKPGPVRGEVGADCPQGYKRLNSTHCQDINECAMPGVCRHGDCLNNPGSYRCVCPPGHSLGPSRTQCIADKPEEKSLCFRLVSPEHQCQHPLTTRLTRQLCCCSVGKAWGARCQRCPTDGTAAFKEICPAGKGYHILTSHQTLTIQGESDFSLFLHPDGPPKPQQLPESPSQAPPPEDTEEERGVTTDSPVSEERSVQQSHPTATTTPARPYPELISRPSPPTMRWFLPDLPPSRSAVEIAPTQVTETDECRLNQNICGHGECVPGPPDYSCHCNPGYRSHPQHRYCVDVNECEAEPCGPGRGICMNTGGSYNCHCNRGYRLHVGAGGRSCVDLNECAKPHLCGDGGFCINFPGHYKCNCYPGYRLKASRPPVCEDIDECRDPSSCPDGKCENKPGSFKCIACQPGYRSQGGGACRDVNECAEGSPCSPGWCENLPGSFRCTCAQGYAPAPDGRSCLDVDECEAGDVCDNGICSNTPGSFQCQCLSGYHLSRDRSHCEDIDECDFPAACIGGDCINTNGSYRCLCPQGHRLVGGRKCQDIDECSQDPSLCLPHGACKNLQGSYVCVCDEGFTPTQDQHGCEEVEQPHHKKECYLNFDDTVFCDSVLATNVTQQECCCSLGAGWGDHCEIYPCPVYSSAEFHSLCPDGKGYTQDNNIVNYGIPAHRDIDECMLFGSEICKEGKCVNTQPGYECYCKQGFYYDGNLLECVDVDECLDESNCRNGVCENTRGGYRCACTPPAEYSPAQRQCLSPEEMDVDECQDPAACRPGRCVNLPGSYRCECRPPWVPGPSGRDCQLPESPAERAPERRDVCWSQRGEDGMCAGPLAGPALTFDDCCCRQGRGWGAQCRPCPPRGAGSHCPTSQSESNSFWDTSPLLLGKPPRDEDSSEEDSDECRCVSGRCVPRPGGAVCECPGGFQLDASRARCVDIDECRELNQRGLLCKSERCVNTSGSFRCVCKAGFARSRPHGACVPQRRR
T1 sequence (P01137 30-390 limits assumed, chain 2 of 2): as the sequence (P01137 30-390 limits assumed, chain 2 of 2) above
T3 sequence (Q14392 20-627 limits assumed, chain 1 of 2): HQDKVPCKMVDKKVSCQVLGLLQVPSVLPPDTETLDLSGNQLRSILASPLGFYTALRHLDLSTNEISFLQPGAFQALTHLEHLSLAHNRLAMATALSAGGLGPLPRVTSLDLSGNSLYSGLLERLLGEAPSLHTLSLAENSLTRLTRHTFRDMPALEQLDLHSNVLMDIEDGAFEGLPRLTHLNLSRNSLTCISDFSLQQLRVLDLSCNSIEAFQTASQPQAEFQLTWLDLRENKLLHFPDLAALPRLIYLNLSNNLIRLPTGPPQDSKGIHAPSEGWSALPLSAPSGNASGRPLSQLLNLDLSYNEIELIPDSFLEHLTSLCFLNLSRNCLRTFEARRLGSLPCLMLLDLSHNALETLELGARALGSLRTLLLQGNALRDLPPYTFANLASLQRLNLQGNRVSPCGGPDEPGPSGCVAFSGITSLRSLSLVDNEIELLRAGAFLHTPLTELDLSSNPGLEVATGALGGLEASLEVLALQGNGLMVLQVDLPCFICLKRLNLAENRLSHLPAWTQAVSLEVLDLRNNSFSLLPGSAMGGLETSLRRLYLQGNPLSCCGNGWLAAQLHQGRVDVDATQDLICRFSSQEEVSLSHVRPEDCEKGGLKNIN
T3 sequence (P01137 30-390 limits assumed, chain 2 of 2): as the sequence (P01137 30-390 limits assumed, chain 2 of 2) above
T2 sequence (Q14766 347-1721 limits assumed, chain 1 of 2): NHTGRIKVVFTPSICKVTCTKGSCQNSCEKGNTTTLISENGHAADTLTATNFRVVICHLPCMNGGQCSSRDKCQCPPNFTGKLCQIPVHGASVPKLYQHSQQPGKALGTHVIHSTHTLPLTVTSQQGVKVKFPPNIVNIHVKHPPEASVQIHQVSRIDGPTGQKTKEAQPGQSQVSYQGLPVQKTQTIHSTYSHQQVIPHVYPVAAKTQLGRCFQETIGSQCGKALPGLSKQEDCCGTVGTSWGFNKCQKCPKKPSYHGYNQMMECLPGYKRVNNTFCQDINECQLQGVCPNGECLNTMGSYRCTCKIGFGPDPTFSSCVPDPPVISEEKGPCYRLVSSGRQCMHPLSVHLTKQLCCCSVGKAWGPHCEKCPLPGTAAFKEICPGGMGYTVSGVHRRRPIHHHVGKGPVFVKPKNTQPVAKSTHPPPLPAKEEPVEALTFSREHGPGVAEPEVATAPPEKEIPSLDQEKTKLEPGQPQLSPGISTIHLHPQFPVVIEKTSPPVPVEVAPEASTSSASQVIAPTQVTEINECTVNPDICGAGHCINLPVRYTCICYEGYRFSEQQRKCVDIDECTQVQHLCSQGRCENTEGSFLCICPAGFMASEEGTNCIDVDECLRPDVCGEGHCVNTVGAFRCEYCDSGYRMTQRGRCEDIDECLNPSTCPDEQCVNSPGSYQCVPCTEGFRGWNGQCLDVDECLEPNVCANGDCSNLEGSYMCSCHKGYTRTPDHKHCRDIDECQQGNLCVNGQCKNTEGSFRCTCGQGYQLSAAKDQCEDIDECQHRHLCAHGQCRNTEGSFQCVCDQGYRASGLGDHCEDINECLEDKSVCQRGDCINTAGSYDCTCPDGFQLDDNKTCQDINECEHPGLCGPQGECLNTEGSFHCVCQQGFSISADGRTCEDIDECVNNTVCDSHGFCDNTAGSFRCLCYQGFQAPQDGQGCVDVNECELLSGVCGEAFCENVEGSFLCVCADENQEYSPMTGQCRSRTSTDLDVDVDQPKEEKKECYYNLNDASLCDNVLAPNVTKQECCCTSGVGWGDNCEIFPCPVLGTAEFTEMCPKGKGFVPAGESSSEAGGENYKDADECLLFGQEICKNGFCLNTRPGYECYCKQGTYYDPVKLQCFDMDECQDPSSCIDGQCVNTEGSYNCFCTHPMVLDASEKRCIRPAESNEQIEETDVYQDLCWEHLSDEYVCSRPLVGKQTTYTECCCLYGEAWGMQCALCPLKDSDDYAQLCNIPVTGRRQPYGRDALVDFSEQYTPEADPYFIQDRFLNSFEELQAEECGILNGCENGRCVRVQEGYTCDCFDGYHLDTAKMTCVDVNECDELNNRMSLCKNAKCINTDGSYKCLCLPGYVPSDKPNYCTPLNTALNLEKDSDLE
T2 sequence (P01137 30-390 limits assumed, chain 2 of 2): as the sequence (P01137 30-390 limits assumed, chain 2 of 2) above

- fold binding selectivity compared to GARP or LRRC33 complexes [1]: ~100 fold
- fold binding selectivity compared to GARP or LRRC33 complexes [2]: ~100 fold
- Kd [3]: 145 nM
- koff [3]: 0.006 s⁻¹
- kon [3]: 41500 M⁻¹ s⁻¹
- Kd [4]: 0.57 nM
- koff [4]: 0.000109 s⁻¹
- kon [4]: 191000 M⁻¹ s⁻¹
- Kd [5]: 134 nM
- koff [5]: 0.00271 s⁻¹
- kon [5]: 20200 M⁻¹ s⁻¹
- Kd [6]: 0.38 nM
- koff [6]: 0.000111 s⁻¹
- kon [6]: 293000 M⁻¹ s⁻¹
- Kd [7]: 145 nM
- Kd [8]: 0.57 nM
- Kd [9]: 134 nM
- Kd [10]: 0.38 nM
B1: Ab42 human Fab (Fab, V domains shown)
VH: QVQLVESGGGVVQPGRSLRLSCAASGFTFRSYVMHWVRQAPGKGLEWVAVISHEGSLKYYADSVKGRFTISRDNSKNTLYLQMNSLRAEDTAVYYCARPRIAARRGGFGYWGQGTLVTVSS
VL: NFMLTQPHSVSESPGKTVTISCTRSSGNIDNNYVQWYQQRPGSSPTTVIYEDNQRPSGVPDRFSGSIDSSSNSASLTISGLKTEDEADYYCQSYDYDTQGVVFGGGTKLTVL
notes: Fab of Ab42; also called Ab42 Fab; Ab42 (monovalent, Fab)

- fold specificity over GARP and LRRC33 complexes [11]: > 100 fold
- fold specificity over GARP and LRRC33 complexes [12]: > 100 fold
B2: Ab42 (antibody, V domains shown)
VH: B1 VH
VL: B1 VL
notes: also called SR-AB42; SR-Ab42
